Three variants from IntAct's records for PubMed 35850301 can be followed below.

Sequences and labels used below:
B1: Maternal protein pumilio (Drosophila melanogaster (Fruit fly)), P25822 (parent)
chain: MKFLGGNDDRNGRGGVGVGTDAIVGSRGGVSQDAADAAGAAAAAAVGYVFQQRPSPGGVGVGVGGVGGGVPGVGAVGSTLHEAAAAEYAAHFAQKQQQTRWACGDDGHGIDNPDKWKYNPPMNPANAAPGGPPGNGSNGGPGAIGTIGMGSGLGGGGGGGAGGGNNGGSGTNGGLHHQSMAAAAANMAAMQQAAALAKHNHMISQAAAAVAAQQQHQHPHQQHPQQQQQQQQAQNQGHPHHLMGGGNGLGNGNGLGIQHPGQQQQQQQQQQQQQHPGQYNANLLNHAAALGHMSSYAQSGGSMYDHHGGAMHPGMNGGMPKQQPLGPPGAGGPQDYVYMGGQTTVPMGAAMMPPQNQYMNSSAVAAANRNAAITTSTAKKLWEKSDGKGVSSSTPGGPLHPLQIPGIGDPSSVWKDHTWSTQGENILVPPPSRAYAHGGASDTSNSGNAGILSPRDSTCAKVVEYVFSGSPTNKDSSLSGLEPHLRNLKFDDNDKSRDDKEKANSPFDTNGLKKDDQVTNSNGVVNGIDDDKGFNRTPGSRQPSPAEESQPRPPNLLFPPLPFNHMLMDHGQGMGGGLGGVVGSGNGVGGGSGGGGAGGAYAAHQQMAAQMSQLQPPMMNGVGGGMPMAAQSPMLNHQAAGPNHMESPGNLLQQQNFDVQQLFRSQNPGLAAVATNAAAAAAAAAAATSAASAAAAVGAPPVPNGSLQQSQQQQQQQQQQQQQQQMHMAAASQQFLAAQQQAQNAAYAAQQATSYVINPGQEAAPYMGMIAAAQMPYYGVAPWGMYPGNLIPQQGTQPRRPLTPSQQGAENQPYQVIPAFLDHTGSLLMGGPRTGTPMRLVSPAPVLVPPGATRAGPPPPQGPQLYQPQPQTAQQNLYSQQNGSSVGGLALNTSSLTGRRDSFDRSTSAFSPSTMDYTSSGVAAAANAVNSTVAQAAAAAAAAAAARGKWPGAMSGAASGAYGALGAGNASASPLGAPITPPPSAQSCLLGSRAPGAESRQRQQQQQQLAAVGLPATAAAAQAAVAAAANNMFGSNSSIFSNPLAIPGTAAVAAAAAAAAAANSRQVAATAAAAAAVAAAAGGVGGAPQPGRSRLLEDFRNQRYPNLQLRDLANHIVEFSQDQHGSRFIQQKLERATAAEKQMVFSEILAAAYSLMTDVFGNYVIQKFFEFGTPEQKNTLGMQVKGHVLQLALQMYGCRVIQKALESISPEQQQEIVHELDGHVLKCVKDQNGNHVVQKCIECVDPVALQFIINAFKGQVYSLSTHPYGCRVIQRILEHCTAEQTTPILDELHEHTEQLIQDQYGNYVIQHVLEHGKQEDKSILINSVRGKVLVLSQHKFASNVVEKCVTHATRGERTGLIDEVCTFNDNALHVMMKDQYANYVVQKMIDVSEPTQLKKLMTKIRPHMAALRKYTYGKHINAKLEKYYMKITNPITVGTGAGGVPAASSAAAVSSGATSASVTACTSGSSTTTTSTTNSLASPTICSVQENGSAMVVEPSSPDASESSSSVVSGAVNSSLGPIGPPTNGNVVL
partner: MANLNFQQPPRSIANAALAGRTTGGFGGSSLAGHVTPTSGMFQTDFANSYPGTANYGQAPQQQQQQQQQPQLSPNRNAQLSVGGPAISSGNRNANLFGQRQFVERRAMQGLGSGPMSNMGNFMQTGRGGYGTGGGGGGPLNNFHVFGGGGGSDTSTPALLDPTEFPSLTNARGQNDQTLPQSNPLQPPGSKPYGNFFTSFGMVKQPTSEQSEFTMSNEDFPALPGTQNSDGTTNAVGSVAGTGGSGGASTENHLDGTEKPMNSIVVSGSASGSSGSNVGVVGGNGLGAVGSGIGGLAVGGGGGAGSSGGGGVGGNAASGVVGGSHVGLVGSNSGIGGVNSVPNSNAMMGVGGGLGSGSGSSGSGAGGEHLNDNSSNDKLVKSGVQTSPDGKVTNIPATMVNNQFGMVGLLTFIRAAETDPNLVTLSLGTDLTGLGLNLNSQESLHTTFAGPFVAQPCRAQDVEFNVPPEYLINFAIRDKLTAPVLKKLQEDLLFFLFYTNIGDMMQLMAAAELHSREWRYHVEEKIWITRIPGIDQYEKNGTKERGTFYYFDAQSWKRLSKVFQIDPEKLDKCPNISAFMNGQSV

Variants of B1 are the subject of one test. As to conditions: with rga_drome Rga.
F1040A: the “effect of a mutation on the interaction” value is on record as “with no effect”.
Still for that read-out and setting: then F1033A;F1040A, with “decreasing interaction strength”; and F1033A, with “with no effect”.

In another test the parent is B1. The settings on record: with rga_drome Rga. The source holds these as a separate data set.
For the variant F1033A;F1040A, the “effect of a mutation on the interaction” value is reported as “decreasing interaction strength”.
